Data published in paper PMC3043095.

Tests used:
[1] = molecular target: leafhopper actin (Circulifer haematoceps, Ciha-1 cells) (Circulifer haematoceps (endogenous in Ciha-1))
[2] = molecular target: leafhopper actin (Circulifer haematoceps, Ciha-1 cells) (Circulifer haematoceps (endogenous in Ciha-1)); remark: listed apart in the source

## His6-tagged PGK-FL4 (S. citri PGK amino acids 101 to 412) (from UniProt Q7WTU1 101-412) (domain or fragment)
[1]
  S. citri transmission by infected leafhoppers injected with 0.2 µg PGK-FL4: relative percentage of batches with positive culture (phosphate buffer = 100) (% relative to phosphate buffer control): 101

## His6-tagged PGK-FL5 (S. citri PGK amino acids 49 to 154) (from UniProt Q7WTU1 49-154) (domain or fragment)
[1]
  S. citri transmission by infected leafhoppers injected with 0.2 µg PGK-FL5: relative percentage of batches with positive culture (phosphate buffer = 100) (% relative to phosphate buffer control): 58.6
[2]
  reduction of S. citri internalization into Ciha-1 cells (gentamicin protection assay) after preincubation of cells with 50 and 400 µg/ml PGK-FL5 (45% and 80%) (% reduction of internalization): 80

## Spiroplasma citri phosphoglycerate kinase, His6-tagged, full length (from UniProt Q7WTU1 1-412) (enzyme)
[1]
  S. citri transmission by infected leafhoppers injected with 0.2 µg His6-tagged PGK: relative percentage of batches with positive culture (phosphate buffer = 100) (% relative to phosphate buffer control): 51.7
[2]
  inhibition of S. citri internalization into Ciha-1 cells (gentamicin protection assay) after preincubation of cells with 400 µg/ml His6-tagged PGK (% inhibition of invasion): 85
